Values of other authors as cited in patent US12150974B2, “Conjugates with inhibitory receptor ligands to induce anergy in insulin-binding B cells” (University of Kansas, priority 2021, dated 2024).

Target: T1, CD20 (Homo sapiens, UniProt P11836)
T1 construct: host or cells: B cells of trial patients (endogenous)
T1 sequence (P11836 1-297): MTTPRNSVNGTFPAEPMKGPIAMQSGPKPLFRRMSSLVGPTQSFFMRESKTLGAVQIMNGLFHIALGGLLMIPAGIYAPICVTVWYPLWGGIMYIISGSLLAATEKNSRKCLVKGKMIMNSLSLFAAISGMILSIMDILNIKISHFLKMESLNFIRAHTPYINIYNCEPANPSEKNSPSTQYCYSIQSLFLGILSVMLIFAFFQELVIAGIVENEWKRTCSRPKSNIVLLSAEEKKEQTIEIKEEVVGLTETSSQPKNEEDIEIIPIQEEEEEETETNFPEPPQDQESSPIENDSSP
Details: at 1 year

clinical outcome in T1D: beta cell preservation
Substance: rituximab
